Blank lines part the entries; values can stand above or below the substance they belong to.
Tests used:
GST-FKBP12 (mouse) = GST-FKBP12 (mouse) (UniProt P26883); experiment: pull-down
[1] = biological target: Porcine brain tubulin (growing microtubules) (porcine); experiment: TIRF microscopy of GFP-CRMP2A on growing microtubules in vitro

Chain of UniProt P26883 (P26883 whole entry): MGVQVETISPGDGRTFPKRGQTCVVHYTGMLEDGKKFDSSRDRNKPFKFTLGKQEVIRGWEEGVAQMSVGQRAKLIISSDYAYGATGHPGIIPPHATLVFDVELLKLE

pull-down signal normalized to the input, relative to CRMP2A without Cdk5 (GST-FKBP12 (mouse)): 0.39
Substance: Cdk5-phosphorylated FLAG-CRMP2A (natural protein)

pull-down signal relative to WT CRMP2A in the presence of Cdk5 (GST-FKBP12 (mouse)): 1.75
Substance: FLAG-CRMP2A S623A, expressed under high Cdk5 activity (natural protein)

pull-down signal normalized to the input, relative to CRMP2A (GST-FKBP12 (mouse)): 2.82
Substance: FLAG-CRMP2AΔ604 (CRMP2A 1-604) (domain or fragment)

The remaining lines, values behind:

Substance: FLAG-CRMP2A S27A, S623A, expressed under high Cdk5 activity (natural protein)
pull-down signal relative to WT CRMP2A in the presence of Cdk5 (GST-FKBP12 (mouse)): 2.59

Substance: FLAG-CRMP2A S27A, expressed under high Cdk5 activity (natural protein)
pull-down signal relative to WT CRMP2A in the presence of Cdk5 (GST-FKBP12 (mouse)): 2.57

Substance: FLAG-tagged GFP-CRMP2A (natural protein)
length of the GFP-positive ends [1]: 0.297 um
length of the GFP-positive ends (with FKBP12) [1]: 0.133 um
persistence of GFP signal [1]: 33.1 s
persistence of GFP signal (with FKBP12) [1]: 18.7 s
